Here are results for 2 molecules from paper PMC3646895, “The Carboxy-Terminal αN Helix of the Archaeal XerA Tyrosine Recombinase Is a Molecular Switch to Control Site-Specific Recombination” (PLoS ONE, 2013).

Where “and” joins values, the source holds several entries; their conditions need not be identical. Equal values may be shown once.

The term Kd denotes the equilibrium constant for the complex coming apart. What is called stoichiometry N is a count of units in the complex or per binding partner.

The target of series [1] is XerA recombinase from Pyrococcus abyssi, C-terminal His-tagged (Pyrococcus abyssi) (UniProt Q9V1P5). Put plainly: AUC; sedimentation velocity, 25°C, 0.3 mM (11.8 mg.ml^-1) XerA in 20 mM Tris-HCl pH 7.5, 1 M NaCl, 42,000 rpm; c(s) distribution and self-association model with fitted non-ideality; dimer to monomers.
Series [2] concerns the molecule itself. Put plainly: SDS-PAGE of covalent protein-DNA complexes (assemblies resistant to thermal denaturation); 40 pmol XerA protein with 25 nM 5' end-labeled left half recombination site, 30 mM Tris pH 7.5, 50 mM NaCl, 2 h at 65°C, quenched in Laemmli buffer, 10 min at 100°C, 12% SDS-PAGE, phosphorimaging.

As to “XerA recombinase from Pyrococcus abyssi, C-terminal His-tagged (from UniProt Q9V1P5 1-286) (enzyme)”, in series [1], the Kd is > 100 µM; the stoichiometry N was 2 and 4.

B1: XerA-ΔC, XerA deleted for the last 13 amino-acids (αN helix), N-terminal His-tagged (domain or fragment, Pyrococcus abyssi, UniProt Q9V1P5 1-273, looked up)
chain: MEEREERVRDDTIEEFATYLELEGKSRNTVRMYTYYISKFFEEGHSPTARDALRFLAKLKRKGYSTRSLNLVIQALKAYFKFEGLDSEAEKLKTPKMPKTLPKSLTEEEVRRIINAAETLRDRLILLLLYGAGLRVSELCNLRVEDVNFEYGVIVVRGGKGGKDRVVPISESLLSEIKRYLESRNDDSPYLFVEMKRKRKDKLSPKTVWRLVKKYGRKAGVELTPHQLRHSFATHMLERGIDIRIIQELLGHSNLSTTQIYTKVSTKHLKEAV
notes: XerA tyrosine recombinase, Pyrococcus abyssi, deleted for the last 13 amino-acids corresponding to the αN helix alone; In the assay it is covalently linked to the cleaved DNA half site; also called ΔαN helix mutant; source: recombinant, obtained by PCR, expressed and purified following the procedure described for the wild-type enzyme
Take B1: in series [2], the “fold reduction of the high molecular weight complexes against XerA” value came to 4 fold.
